Test results taken from article PMC2222952, “Structural and Biochemical Bases for the Inhibition of Autophagy and Apoptosis by Viral BCL-2 of Murine γ-Herpesvirus 68” (PLoS Pathogens, 2008).
Like-named read-outs stand apart in the source and are kept apart here. Ends that are not written are not given here.

B4: M11 (residues 1–137), purified alone (domain or fragment)
chain: MSHKKSGTYWATLITAFLKTVSKVEELDCVDSAVLVDVSKIITLTQEFRRHYDSVYRADYGPALKNWKRDLSKLFTSLFVDVINSGRIVGFFDVGRYVCEEVLCPGSWTEDHELLNDCMTHFFIENNLMNHFPLEDI
notes: source: E. coli BL21(DE3), purified (Ni-NTA, Hitrap Q)

Columns and labels:
[1] = target: T1, M11, viral BCL-2 of murine γ-herpesvirus 68 (residues 1–137) (Murid herpesvirus 4, UniProt P89884); format: binding
T1 construct: Each of the DNA fragments coding for M11 (residues 1–137); His6 tag; This is inferred: pPROEX HTa encodes an N-terminal His tag with a TEV site, and purification was on Ni-NTA; (N); made in house; host or cells: E. coli BL21(DE3)
T1 sequence (P89884 whole entry, looked up): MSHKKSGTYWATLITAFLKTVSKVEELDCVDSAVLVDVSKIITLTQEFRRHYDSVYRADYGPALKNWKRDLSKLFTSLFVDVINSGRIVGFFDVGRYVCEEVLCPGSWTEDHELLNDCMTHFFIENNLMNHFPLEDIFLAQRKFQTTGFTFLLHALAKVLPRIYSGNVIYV
Source text: (§1) “HT”, “CCD” and “ECD” denote hydrophobic tail, coiled-coil domain and evolutionarily conserved domain, respectively. […] The surface coloring scheme is as follows: olive for Val, Leu, Ile, Phe, Trp, Met, and Ala; yellow for Cys, Gly, Tyr, and Pro; gray for other amino acids. […] Only the BH3-binding groove region of M11 is shown for clarity. […] The arrows indicate the movements of the Cα atoms of Asp59 and Tyr60 in M11. (C) ITC analysis.
(§2) Figure 5 Analyses of the Interactions between M11 or BCL-2 Proteins and BAX/BAK (A) Cell-based binding assay. 293T cells were transfected with HA-tagged BAK or Flag-tagged BAX together with the indicated GST-tagged prosurvival BCL-2 proteins. Whole cell lysates were used for immunoprecipitation with anti-GST followed by immunoblotting with anti-HA or anti-Flag. […] (B) ITC analyses of the interactions of M11 with the BH3 peptides of BAX or BAK. The ITC analysis was carried out by titrating 0.1 mM of the indicated peptides into 5 μM of M11. The ITC run for the titration of the 26-mer BAK peptide is shown. […] NIH3T3 cells were transfected with HA-tagged M11 and whole cell lysates were used for immunoprecipitation with control rabbit serum or anti-BAK followed by immunoblotting with anti-HA.
(§3) A plasmid containing the DNA segment coding for human BCL-2 (residues 1–50 and 92–207) was also constructed. The resulting protein lacks the internal long loop (residues 51–91) and contains a replacement of residues 35–50 with residues 33–48 of BCL-XL, which was necessary for the solubility of the protein as reported earlier. Each construct was introduced into the E. coli BL21(DE3) strain. The proteins were expressed at 21 °C overnight and purified using a Ni-NTA column and a Hitrap Q anion exchange column.
(§4) All measurements were carried out at 25 °C on a MicroCalorimetry System (MicroCal). Protein samples were dialyzed against the solution containing 20 mM Tris-HCl (pH 7.4) and 100 mM NaCl. The samples were degassed for 20 min and centrifuged to remove any residuals prior to the measurements. Dilution enthalpies were measured in separate experiments (titrant into buffer) and subtracted from the enthalpies of the binding between the protein and the titrant. Data were analyzed using the Origin software (OriginLab Corp.).

A1 ∆C20 = system: A1 ∆C20; set-up: method as in earlier work; settings: Table S1; relative values, not absolute KD; peptides of Chen et al. are the same as or 1 to 2 residues shorter than those of this paper; read-out: binding affinity for A1 ∆C20 (relative value, competitive binding assay); cited from earlier work
BCL-w ∆C29 = settings: Table S1; relative values, not absolute KD; peptides of Chen et al. are the same as or 1 to 2 residues shorter than those of this paper; read-out: binding affinity for BCL-w ∆C29 (relative value, competitive binding assay); cited from earlier work
BCL-XL ∆C24 = settings: Table S1; relative values, not absolute KD; peptides of Chen et al. are the same as or 1 to 2 residues shorter than those of this paper; read-out: binding affinity for BCL-XL ∆C24 (relative value, competitive binding assay); cited from earlier work
MCL ∆N151 ∆C23 = system: MCL ∆N151 ∆C23; set-up: method as in earlier work; settings: Table S1; relative values, not absolute KD; peptides of Chen et al. are the same as or 1 to 2 residues shorter than those of this paper; read-out: binding affinity for MCL ∆N151 ∆C23 (relative value, competitive binding assay); cited from earlier work
[2] = target: T2, M11, viral BCL-2 of murine γ-herpesvirus 68 (residues 1–137) (Murid herpesvirus 4, UniProt P89884); format: binding; settings: ITC, 25 °C, 20 mM Tris-HCl (pH 7.4), 100 mM NaCl; Table S2
T2 construct: Each of the DNA fragments coding for M11 (residues 1–137); His6 tag; This is inferred: pPROEX HTa encodes an N-terminal His tag with a TEV site, and purification was on Ni-NTA; (N); made in house; host or cells: E. coli BL21(DE3)
Source text: as §1, §2, §3, §4

BCL-2 ∆C22 = system: BCL-2 ∆C22; set-up: method as in earlier work; settings: Table S1; relative values, not absolute KD; peptides of Chen et al. are the same as or 1 to 2 residues shorter than those of this paper; read-out: binding affinity for BCL-2 ∆C22 (relative value, competitive binding assay); cited from earlier work
[3] = target: B4; assay: ITC; settings: both partners purified
Beclin1(101–267) = target: T3, Beclin1(101–267) (mouse, UniProt O88597 101-267); assay: ITC; settings: both partners purified
T3 construct: also called Beclin1 fragment containing residues 101–267; large Beclin1 fragment; source: E. coli BL21(DE3), purified (Ni-NTA, Hitrap Q)

[4] = target: T4, mouse BCL-XL (residues 1–44 and 85–196) (mouse, UniProt Q64373-1 1-196, lacking the internal long loop (residues 45–84)); assay: native gel or EMSA; settings: both partners purified
T4 construct: also called BCL-XL lacking the internal long loop and the C-terminal tail region

[5] = target: human BCL-2 (residues 1–50 and 92–207); assay: Isothermal titration calorimetry (ITC) of BCL-2 with Beclin1 fragment; format: binding
Protocol: Figure 3 M11 Interacts Much More Tightly with Beclin1 than BCL-2 and BCL-XL (A) ITC analysis. The measurement was carried out by titrating 0.1 mM of M11 or BCL-2 into 5 μM of the indicated Beclin1 fragment. The K D values were deduced from curve fittings of the integrated heat per mol of added ligand. (B) M11–Beclin1 interface is tighter than that of BCL-XL–Beclin1. The structures of M11–Beclin1 fragment (left) and BCL-XL–Beclin1 peptide (right) are compared side by side. In both the structures, the five consensus BH3 residues of the bound α-helices and the side chains of M11 or BCL-XL interacting with those residues are shown as sticks and labeled. Noted are the tighter interactions of the N-terminal region of Beclin1 with the α3 helix of M11 than the corresponding region in the BCL-XL–Beclin1 helix (indicated by dotted circles).
Each of the DNA fragments coding for M11 (residues 1–137), mouse BCL-XL (residues 1–44 and 85–196) or mouse Beclin1 (residues 101–267) was cloned into pPROEX HTa. […]
All measurements were carried out at 25 °C on a MicroCalorimetry System (MicroCal). […] Dilution enthalpies were measured in separate experiments (titrant into buffer) and subtracted from the enthalpies of the binding between the protein and the titrant. Data were analyzed using the Origin software (OriginLab Corp.).

[6] = 25 °C, 20 mM Tris-HCl (pH 7.4), 100 mM NaCl
[7] = ITC, 25 °C, 20 mM Tris-HCl (pH 7.4), 100 mM NaCl, Table S2

T4 sequence (Q64373 other isoform, or with tags, fused parts or gaps with the stated changes): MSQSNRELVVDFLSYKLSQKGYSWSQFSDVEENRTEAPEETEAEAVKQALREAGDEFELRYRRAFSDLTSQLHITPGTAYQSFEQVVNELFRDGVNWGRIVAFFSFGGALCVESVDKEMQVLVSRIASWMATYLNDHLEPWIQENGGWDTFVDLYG

## BAK (16-mer; residues 69-84): synthetic 16-mer peptide, residues 69–84 of BAK, spanning the BH3 domain (LGQVGRQLALIGDDIN)
[1]; [6]
  interaction with M11 in ITC, in words (KD could not be deduced): flat titration curve

## BIK: synthetic 25-mer BH3 peptide, residues 45–69 of BIK (VEGRNQVALRLACIGDEMDLCLRSP)
A1 ∆C20
  IC50: 58 nM
BCL-w ∆C29
  IC50: 12 nM
[1]; [6]
  interaction with M11 in ITC, in words (KD could not be deduced): did not interact or poorly interacted
BCL-XL ∆C24
  IC50: 43 nM

## Beclin1 fragment composed of residues 101–116: a shorter Beclin1 fragment composed of residues 101–116 (ASDGGTMENLSRRLKV)
[1]; [6]
  interaction with M11 in ITC, in words (KD could not be deduced): no sign of interaction

## EEEWAREIGAQLRRMADDLNAQYERR [PUMA]
A1 ∆C20
  IC50: 5.7 nM
MCL ∆N151 ∆C23
  IC50: 5 nM

## HRAEVQIARKLQCIADQFHRLHTQ [BMF]
A1 ∆C20
  IC50: 1800 nM
BCL-w ∆C29
  IC50: 9.8 nM
[2]
  -T∆S (M11 + BH3): -2.56 kcal/mol
  ∆G (M11 + BH3): -8.90 kcal/mol
  ∆H (M11 + BH3): -6.34 ± 0.07 kcal/mol
MCL ∆N151 ∆C23
  IC50: 1100 nM
BCL-2 ∆C22
  IC50: 3 nM
BCL-XL ∆C24
  IC50: 9.7 nM

## RWAAAQVTALRLQALGDELHRRAMRR [Hrk]
A1 ∆C20
  IC50: 46 nM
BCL-w ∆C29
  IC50: 49 nM
BCL-2 ∆C22
  IC50: 320 nM
BCL-XL ∆C24
  IC50: 3.7 nM

B1: Noxa BH3 peptide, 26-mer (residues 16–41 of Noxa) (peptide, UniProt Q9JM54 16-41, looked up)
peptide: RAELPPEFAAQLRKIGDKVYCTWSAP
notes: also called Noxa peptide; source: synthetic peptide, bought: Peptron (Korea)
[3]
  binding result: binds

B2: BID BH3 peptide, 25-mer (residues 80–104 of BID) (peptide, UniProt P70444 80-104, looked up)
peptide: EEIIHNIARHLAQIGDEMDHNIQPT
notes: also called BID peptide; source: synthetic peptide, bought: Peptron (Korea)
[3]
  binding result: binds

B3: human BCL-2 (residues 1–50 and 92–207, residues 35–50 replaced with residues 33–48 of BCL-XL) (domain or fragment, UniProt P10415-1 1-34, looked up)
chain: MAHAGRTGYDNREIVMKYIHYKLSQRGYEWDAGDNRTEAPEGTESEMETPVVHLTLRQAGDDFSRRYRRDFAEMSSQLHLTPFTARGRFATVVEELFRDGVNWGRIVAFFEFGGVMCVESVNREMSPLVDNIALWMTEYLNRHLHTWIQDNGGWDAFVELYGPSMR
notes: also called cellular BCL-2; source: E. coli BL21(DE3), purified (Ni-NTA, Hitrap Q)
Beclin1(101–267)
  Kd: 1700 nM

## B4
Beclin1(101–267)
  Kd: 40 nM

B5: BIM BH3 peptide, 26-mer (residues 139–164 of BIM) (peptide, UniProt O54918-1 139-164, looked up)
peptide: DLRPEIRIAQELRRIGDEFNETYTRR
notes: also called BIM peptide; source: synthetic peptide, bought: Peptron (Korea)
[3]
  binding result: binds
[4]
  binding result: binds

B6: Beclin1(101–267): mouse Beclin1 fragment containing residues 101–267, expressed as a soluble form in E. coli (protein)
chain: ASDGGTMENLSRRLKVTGDLFDIMSGQTDVDHPLCEECTDTLLDQLDTQLNVTENECQNYKRCLEILEQMNEDDSEQLQRELKELALEEERLIQELEDVEKNRKVVAENLEKVQAEAERLDQEEAQYQREYSEFKRQQLELDDELKSVENQVRYAQIQLDKLKKTNV
[1]; ITC, 25 °C, 20 mM Tris-HCl (pH 7.4), 100 mM NaCl, 0.1 mM M11 titrated into 5 μM Beclin1 fragment, KD from curve fitting, listed as Residues 101 - 267, read-out: KD (M11 – Beclin1 fragment)
  Kd: 40.2 ± 9.05 nM
[1]; ITC, 25 °C, 20 mM Tris-HCl (pH 7.4), 100 mM NaCl, 0.1 mM M11 titrated into 5 μM Beclin1 fragment, KD from curve fitting, read-out: KD (M11 – Beclin1 fragment)
  Kd: 40 nM
[1]; [7]
  -T∆S (M11 + Beclin1): 4.23 kcal/mol
  ∆G (M11 + Beclin1): -10.10 kcal/mol
  ∆H (M11 + Beclin1): -14.33 ± 0.23 kcal/mol
[1]; ITC, read-out: dissociation constant (M11 – BH3-like domain of Beclin1)
  Kd: 40 nM
[5]; 25 °C, 20 mM Tris-HCl (pH 7.4), 100 mM NaCl, Table S2, read-out: KD (BCL-2 + Beclin1)
  Kd: 1680 ± 452 nM
[5]; read-out: binding affinity between cellular BCL-2 and Beclin1
  Kd: 1700 nM

B7: BAK BH3 peptide, 26-mer (residues 65–90 of BAK) (peptide, UniProt O08734 65-90, looked up)
peptide: PNSILGQVGRQLALIGDDINRRYDTE
notes: also called BAK peptide; 26-mer BAK peptide; source: synthetic peptide, bought: Peptron (Korea)
[3]
  Kd: 76 nM

B8: PUMA BH3 peptide, 26-mer (residues 130–155 of PUMA) (peptide, UniProt Q99ML1 130-155, looked up)
peptide: EEEWAREIGAQLRRMADDLNAQYERR
notes: also called PUMA peptide; source: synthetic peptide, bought: Peptron (Korea)
[3]
  binding result: binds

B9: BAD BH3 peptide, 27-mer (residues 137–163 of BAD) (peptide, UniProt Q61337 137-163, looked up)
peptide: APPNLWAAQRYGRELRRMSDEFEGSFK
notes: also called BAD peptide; source: synthetic peptide, bought: Peptron (Korea)
[4]
  binding result: binds

B10: BAX BH3 peptide, 26-mer (residues 52–77 of BAX) (peptide, UniProt Q07813-1 52-77, looked up)
peptide: QDASTKKLSECLRRIGDELDSNMELQ
notes: also called BAX peptide; source: synthetic peptide, bought: Peptron (Korea)
[3]
  Kd: 690 nM
